Measurements from US8796209B2, “Compositions and methods related to anti-FGF agents” (The Regents of the University of California, priority 2005, dated 2014).

Experiments:
[1] = target: T1, integrin αvβ3 (Homo sapiens, UniProt P05106+P06756); assay: Soluble integrin binding assay (ELISA-type), soluble αvβ3 on immobilized FGF; settings: coated at 10 μg/ml; soluble αvβ3 5 μg/ml, 1 mM MnCl2
T1 construct: using the soluble αv and β3 expression constructs provided by Tim Springer; made in house; host or cells: CHO K1
T1 sequence (P06756 31-992 limits assumed): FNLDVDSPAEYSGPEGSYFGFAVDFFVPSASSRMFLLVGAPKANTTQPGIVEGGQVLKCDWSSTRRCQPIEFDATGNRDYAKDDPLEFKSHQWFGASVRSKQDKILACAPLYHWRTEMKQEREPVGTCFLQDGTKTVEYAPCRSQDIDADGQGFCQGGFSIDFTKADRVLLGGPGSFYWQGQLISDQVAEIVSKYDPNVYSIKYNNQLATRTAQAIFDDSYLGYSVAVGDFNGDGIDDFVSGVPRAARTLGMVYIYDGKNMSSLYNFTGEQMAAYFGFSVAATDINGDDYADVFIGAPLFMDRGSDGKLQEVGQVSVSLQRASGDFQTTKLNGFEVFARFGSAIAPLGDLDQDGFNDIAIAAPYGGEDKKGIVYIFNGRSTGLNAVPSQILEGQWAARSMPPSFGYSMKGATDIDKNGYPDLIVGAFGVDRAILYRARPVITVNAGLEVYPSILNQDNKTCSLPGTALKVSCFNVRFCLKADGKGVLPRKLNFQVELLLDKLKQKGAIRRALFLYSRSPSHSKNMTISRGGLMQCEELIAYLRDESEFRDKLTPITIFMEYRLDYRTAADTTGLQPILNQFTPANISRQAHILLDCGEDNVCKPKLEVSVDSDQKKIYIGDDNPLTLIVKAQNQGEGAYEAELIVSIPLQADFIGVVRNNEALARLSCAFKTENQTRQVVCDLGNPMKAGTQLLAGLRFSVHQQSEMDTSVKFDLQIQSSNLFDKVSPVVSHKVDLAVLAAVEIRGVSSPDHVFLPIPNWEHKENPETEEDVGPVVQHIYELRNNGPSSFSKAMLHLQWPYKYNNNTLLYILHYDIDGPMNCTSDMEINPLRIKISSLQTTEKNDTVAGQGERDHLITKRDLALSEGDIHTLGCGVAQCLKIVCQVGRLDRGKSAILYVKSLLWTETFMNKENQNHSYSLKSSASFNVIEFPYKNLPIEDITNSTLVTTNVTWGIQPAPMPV
T1 sequence (P05106 27-718 limits assumed): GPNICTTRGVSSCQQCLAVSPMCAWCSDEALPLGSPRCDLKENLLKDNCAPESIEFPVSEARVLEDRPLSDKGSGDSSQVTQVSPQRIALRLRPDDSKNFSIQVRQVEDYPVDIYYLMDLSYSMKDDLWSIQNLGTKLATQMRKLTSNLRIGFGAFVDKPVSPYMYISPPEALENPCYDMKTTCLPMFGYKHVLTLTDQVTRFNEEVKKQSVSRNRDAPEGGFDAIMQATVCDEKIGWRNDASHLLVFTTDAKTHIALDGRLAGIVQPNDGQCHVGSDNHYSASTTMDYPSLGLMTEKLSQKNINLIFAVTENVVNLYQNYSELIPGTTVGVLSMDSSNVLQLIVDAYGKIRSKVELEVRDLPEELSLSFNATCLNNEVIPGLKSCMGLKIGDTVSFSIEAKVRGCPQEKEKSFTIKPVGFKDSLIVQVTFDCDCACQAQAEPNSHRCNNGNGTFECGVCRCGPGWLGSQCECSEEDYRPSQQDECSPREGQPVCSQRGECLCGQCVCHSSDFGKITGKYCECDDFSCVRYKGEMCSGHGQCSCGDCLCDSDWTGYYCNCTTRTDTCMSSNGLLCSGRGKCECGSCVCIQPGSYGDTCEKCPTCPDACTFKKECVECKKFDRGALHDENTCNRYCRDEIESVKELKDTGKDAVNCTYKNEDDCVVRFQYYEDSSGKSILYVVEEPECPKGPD
Description: Wells of 96-well microtiter plates were coated with 10 μg/ml FGF-1 or FGF-2 and remaining protein binding sites were blocked with 1 mg/ml BSA. Recombinant soluble αvβ3 (50 μl/well at 5 μg/ml in Hepes-Tyrode buffer supplemented with 1 mM MnCl2) was added to wells and incubated for 1 h at room temperature. Soluble αvβ3 was incubated with 10 μg/ml 7E3 (white bar) or mouse IgG (black bar) for 10 min on ice prior to adding to the wells. BSA (circle) was used as a negative control. Data is shown as means+/−SD of triplicate experiments.
FGF-1 (10 μg/m) was heat-treated at indicated temperature for 10 min prior to immobilization. Binding of soluble αvβ3 was determined as described in FIG. 1. Data is shown as percent binding+/−SD of triplicate experiments.
Amino acid residues in the integrin-binding site or in the FGFR-binding site were mutated individually or in groups. Wild-type (diamond), R50E (open square), N33A (closed square), 4xE (circle), 3xA (triangle) were coated to a plastic plate various concentration as indicated and the binding of soluble αvβ3 was determined as described in FIG. 2. BSA (cross) was used as a negative control. […] “4xE” represents the K127E/K128E/K133E/R134E mutant. “3xA” represents the E102A/Y109A/Q110A mutant.
Binding assays were performed as previously described (Takagi et al., 2001). Native or heat-denatured FGF-1 in 0.1 M carbonate buffer, pH 9.4, were incubated in a polystyrene 96-well non-tissue culture plates surface overnight at 4° C. Unbound FGF-1 was removed, and 200 μl of 0.1% bovine serum albumin in PBS was added and incubated for 60 min at room temperature. The wells were washed with PBS and soluble integrin αvβ3 in 50 μl in Hepes-Tyrode buffer supplemented with 1 mM Mn^2+ were added to the wells and incubated at room temperature for 60 min. After non-bound soluble integrin were removed by rinsing the wells with the same buffer. Horseradish peroxidase (HRP) conjugated anti His-tag mouse IgG was added to well and incubated 60 min. Non-bound antibodies were removed by rinsing the wells with the same buffer, bound integrins were quantified by measuring the absorbance of 450 nm developed from adding the substrate (3,3′,5,5′-tetramethylbenzidine) of HRP unbound protein was aspirated, and the wells were washed with PBS three times.

[2] = tested on: ERK1/2; assay: MAP kinase (ERK1/2) activation, western blot; format: cell-based, mouse; settings: 5 μg/ml heparin
Description: Serum starved Balb3T3 cells were stimulated with wild-type and mutant FGF-1s (5 ng/ml) in the presence or absence of 5 μg/ml heparin for 10 min at 37° C. Cell lysates were analyzed by western blotting with anti-phospho ERK1/2 (anti phospho-ERK). Total amount of ERK1/2 in each lane was determined by blotting with anti-ERK1/2. Controls contain medium alone (none) or medium containing 10% fetal calf serum (FCS).
Balb3T3 cells were grown to confluence and serum starved in DMEM supplemented with 0.4% fetal calf serum for 24 h, and stimulated with wild type and mutant FGF-1 (5 ng/ml) in the presence or absence of 5 μg/ml heparin for 10 min at 37° C. Cells were washed twice with ice-cold PBS and lysed with the lysis buffer (20 mM Tris-HCI pH 8.0, 120 mM NaCl, 5 mM EDTA, 0.5% Triton-X100, 1 mM PMSF, 1 mM DTT, 10 mM NaF, 1 mM Na3VO4, 10 μg/ml aprotinin). Cell lysates were separated on 4-12% NuPAGE Bis-Tris Gel (invitrogen). Proteins were then transferred to PVDF membranes (Milli-pore), probed with antibodies, and bound antibodies were detected by HRP-conjugated anti-mouse IgG and chemiluminescence HRP substrate (Pierce). The antibodies used were anti-phospho-ERK1/2, anti-ERK1/2 (Cell Signaling Technology).

[3] = target: T2, FGF-1-αvβ3 interaction (Homo sapiens, UniProt P05106+P06756); assay: Inhibition of FGF-1-αvβ3 interaction by γC; format: binding; settings: immobilized FGF-1 10 μg/ml, increasing concentrations of soluble γC
T2 construct: using the soluble αv and β3 expression constructs provided by Tim Springer; made in house; host or cells: CHO K1 (integrin); E. coli BL21 (DE3) (FGF-1)
T2 sequence (P06756 31-992 limits assumed): as the sequence (P06756 31-992 limits assumed) above
T2 sequence (P05106 27-718 limits assumed): as the sequence (P05106 27-718 limits assumed) above
Description: FGF-1 (10 μg/m) was immobilized to the plastic plate. Soluble αvβ3 was added to the wells together with increasing concentrations of soluble γC. Binding was determined as described in A. Data is shown as percent binding+/−SD of triplicate experiments with no addition of γC as 100.
FGF-1 (10 μg/ml) was immobilized to wells of 96-well plates. Soluble αvβ3 integrin was added to the wells with various concentration of γC. Bound integrin was detected by using HRP-conjugated anti-6His antibodies and its substrate as described above.

FGF-2: basic FGF, used as a positive control for αvβ3 binding
binding of soluble αvβ3 to the immobilized protein [1]: bound

heparin [reference compound]
effect of heparin on FGF-1-induced ERK1/2 activation [2]: did not enhance

B1: γC: globular carboxyl-terminal domain of the fibrinogen γ-chain, a known ligand for αvβ3 (protein)
chain: KDCQDIANKGAKQSGLYFIKPLKANQQFLVYCEIDGSGNGWTVFQKRLDGSVDFKKNWIQYKEGFGHLSPTGTTEFWLGNEKIHLISTQSAIPYALRVELEDWNGRTSTADYAMFKVGPEADKYRLTYAYFAGGDAGDAFDGFDFGDDPSDKFFTSHNGMQFSTWDNDNDKFEGNCAEQDGSGWWMNKCHAGHLNGVYYQGGTYSKASTPNGYDNGIIWATWKTRWYSMKKTTMKIIPFNRLTIGEGQQHHLGGAKQAGDV
blocking of FGF-1-αvβ3 interaction [3]: effectively block
